The results in this text go back to patent US20220025010A1 (ANTAG THERAPEUTICS, published 2022).

This test addresses T1, human GIP receptor (human, UniProt P48546 22-466).
T1 sequence (looked up): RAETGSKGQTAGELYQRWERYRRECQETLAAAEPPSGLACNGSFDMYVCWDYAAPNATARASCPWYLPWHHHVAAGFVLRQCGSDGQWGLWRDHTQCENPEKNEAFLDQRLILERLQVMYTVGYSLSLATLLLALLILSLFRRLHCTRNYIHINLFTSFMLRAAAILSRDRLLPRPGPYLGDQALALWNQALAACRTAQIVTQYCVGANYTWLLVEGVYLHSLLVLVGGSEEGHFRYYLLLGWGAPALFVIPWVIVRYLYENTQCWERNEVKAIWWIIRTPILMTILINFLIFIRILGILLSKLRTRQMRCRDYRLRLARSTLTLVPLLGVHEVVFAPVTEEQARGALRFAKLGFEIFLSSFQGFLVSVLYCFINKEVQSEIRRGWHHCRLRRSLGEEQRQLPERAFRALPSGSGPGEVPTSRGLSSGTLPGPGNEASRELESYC
Kind of test: cell-based or functional assay.

B1: AT263 (peptide)
peptide: GGTFISDYSIAMDRIKQQDFVNWLLAQR
HELM: PEPTIDE1{G.G.T.F.I.S.D.Y.S.I.A.M.D.R.I.K.Q.Q.D.F.V.N.W.L.L.A.Q.R}|PEPTIDE2{[O=C(O)CCCCCCCCCCCCCCC(=O)[*:2]].[gGlu]}$PEPTIDE1,PEPTIDE2,16:R3-2:R2$$$V2.0; N-terminus assumed
SMILES: CC[C@H](C)[C@H](NC(=O)[C@H](CO)NC(=O)[C@H](Cc1ccc(O)cc1)NC(=O)[C@H](CC(=O)O)NC(=O)[C@H](CO)NC(=O)[C@@H](NC(=O)[C@H](Cc1ccccc1)NC(=O)[C@@H](NC(=O)CNC(=O)CN)[C@@H](C)O)[C@@H](C)CC)C(=O)N[C@@H](C)C(=O)N[C@@H](CCSC)C(=O)N[C@@H](CC(=O)O)C(=O)N[C@@H](CCCNC(=N)N)C(=O)N[C@H](C(=O)N[C@@H](CCCCNC(=O)CC[C@H](NC(=O)CCCCCCCCCCCCCCC(=O)O)C(=O)O)C(=O)N[C@@H](CCC(N)=O)C(=O)N[C@@H](CCC(N)=O)C(=O)N[C@@H](CC(=O)O)C(=O)N[C@@H](Cc1ccccc1)C(=O)N[C@H](C(=O)N[C@@H](CC(N)=O)C(=O)N[C@@H](Cc1c[nH]c2ccccc12)C(=O)N[C@@H](CC(C)C)C(=O)N[C@@H](CC(C)C)C(=O)N[C@@H](C)C(=O)N[C@@H](CCC(N)=O)C(=O)N[C@@H](CCCNC(=N)N)C(=O)O)C(C)C)[C@@H](C)CC
For the molecule B1, the “CisBio cAMP agonism % Efficacy” value worked out at 0%, the “CisBio cAMP antagonism % inhib” value is 69%, the “CisBio cAMP antagonism IC50” value turned out to be 21 nM and the “CisBio cAMP antagonism pIC50” value amounted to 6.7. In addition, the “DiscoveRx cAMP agonism Emax” value is 8, the “DiscoveRx cAMP antagonism IC50” value is 74 nM and the “DiscoveRx cAMP antagonism log IC50” value is -7.1 log M.

B2: AT506 (peptide)
peptide: PGTFISDYSIAMDRIKQQDFVNWLLAQR
HELM: PEPTIDE1{P.G.T.F.I.S.D.Y.S.I.A.M.D.R.I.K.Q.Q.D.F.V.N.W.L.L.A.Q.R.[am]}|PEPTIDE2{[O=C(O)CCCCCCCCCCCCCCC(=O)[*:2]].[gGlu]}$PEPTIDE1,PEPTIDE2,16:R3-2:R2$$$V2.0; N-terminus assumed
SMILES: CC[C@H](C)[C@H](NC(=O)[C@H](CO)NC(=O)[C@H](Cc1ccc(O)cc1)NC(=O)[C@H](CC(=O)O)NC(=O)[C@H](CO)NC(=O)[C@@H](NC(=O)[C@H](Cc1ccccc1)NC(=O)[C@@H](NC(=O)CNC(=O)[C@@H]1CCCN1)[C@@H](C)O)[C@@H](C)CC)C(=O)N[C@@H](C)C(=O)N[C@@H](CCSC)C(=O)N[C@@H](CC(=O)O)C(=O)N[C@@H](CCCNC(=N)N)C(=O)N[C@H](C(=O)N[C@@H](CCCCNC(=O)CC[C@H](NC(=O)CCCCCCCCCCCCCCC(=O)O)C(=O)O)C(=O)N[C@@H](CCC(N)=O)C(=O)N[C@@H](CCC(N)=O)C(=O)N[C@@H](CC(=O)O)C(=O)N[C@@H](Cc1ccccc1)C(=O)N[C@H](C(=O)N[C@@H](CC(N)=O)C(=O)N[C@@H](Cc1c[nH]c2ccccc12)C(=O)N[C@@H](CC(C)C)C(=O)N[C@@H](CC(C)C)C(=O)N[C@@H](C)C(=O)N[C@@H](CCC(N)=O)C(=O)N[C@@H](CCCNC(=N)N)C(N)=O)C(C)C)[C@@H](C)CC
With B2, the “CisBio cAMP agonism % Efficacy” value stood at 5%, the “CisBio cAMP antagonism % inhib” value stood at 78%, the “CisBio cAMP antagonism IC50” value is 147 nM and the “CisBio cAMP antagonism pIC50” value was 6.8. The “DiscoveRx cAMP antagonism % inhib” value was determined as 90%, the “DiscoveRx cAMP antagonism IC50” value is 91 nM and the “DiscoveRx cAMP antagonism log IC50” value is -7 log M.
